Data on 34 variants can be found in the RNAGym collection of RNA variant scans (doi:10.1093/nar/gkz1192).

To fix the notation:
B1: CPEB3 Ribozyme (parent)
chain: UAACAGGGGGCCACAGCAGAAGCGUUCACGUCGCAGCCCCUGUCAGAUUCUGGUGAAUCUGCGAAUUCUGCUGUAUAUCUC

Variants of B1 are the subject of the data set. Nature of the data set: self-cleavage, relative activity (ratio to wild type); higher = more cleavage; in vitro, sequencing. The essentials:
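Relative activity was defined as the cleaved/total read fraction for a variant divided by the same fraction for the unmutated ribozyme. CPEB3 self-cleaving ribozyme libraries were made by rounds of error-prone PCR, barcoded, and transcribed in vitro with T7 RNA polymerase for 5 hours at 37°C, and cleavage ran through transcription plus a 15 min DNase I step before EDTA. Illumina sequencing of template-switched reverse transcripts gave the reads, and DNA sequencing mapped the barcodes. Averages come from three batches, using variants with at least 5 reads.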
For the variant UAACCGGGGGCCACAGCAGAAGCGUUCACGUCGCAGCCCCUGUCAGAUUCUGGUGAAUCUGCGAAUUCUGCUGUAUAUCCC, the self-cleavage is 1.05. On to UAACAGGGGGCCGCAGCAGAAGCGUUCACGUCGCAGCCCCUGUCAGAUUCCGGUGAAUCUGCGAAUUCUGCUGUAUAUCUC, for which the self-cleavage was 0.85. Consider UAACAGGGGGCCAUAGUAGAAGCGUUCACGUCGCAGCCCCUGUCAGAUUCUGGUGAAUCUGCGAAUUCUGCUGUAUAUCUC, for which the self-cleavage was 0.87.

In the case of UAACAGAGGGCCACAGCAGAAGCGUUCACGUCGCAGCCCCUGUCAGAUUCUGGUGAAUAUGCGAAUUCUGCUGUAUAUCUC, the self-cleavage is 0.04. Take UAACAUGGGGCCACCGCAGAAGCGUUCACGUCGCAGCCCCUGUCAGAUUCUGGUGAAUCUGCGAAUUCUGCUGUAUAUCUC: the self-cleavage is 0.19. As for UAACAGGGGGCCACAGCAGAAGCGUUCACGUCGCAGCCCCUGUCAGAUUCUGGUGAAUCAGCGAAUGCUGCUGUAUAUCUC, the figure is 0.79. Turning to UAACAGGGGGCCACAGCAGAAGCGUUCACGUCGCAGCCCCUGUCAGAAUCUGGUGAAUCUGCGAAUUCUGCUGUACAUCUC, the self-cleavage turned out to be 0.67. In the case of UAACAGGGGGCCACAGCAGAAGCGUUCACGUCGCAUUCCCUGUCAGAUUCUGGUGAAUCUGCGAAUUCUGCUGUAUAUCUC, the self-cleavage stood at 0.1. For the variant UAACAGGGGGCCACAGCAGAAGCGUUCACGUCGCAGCCCCUGCCAGAUUCUGGUGAAUCUGGGAAUUCUGCUGUAUAUCUC, the self-cleavage is 0.21. As for UAACAGGGGGCCCCAGCAGAAGCGUUCACUUCGCAGCCCCUGUCAGAUUCUGGUGAAUCUGCGAAUUCUGCUGUAUAUCUC, the figure is 0.12; as for UAACAGGGGGCCACAGCAGAAGCGUUCACGUCGCAGCCCCUGGCAGAUUCUGAUGAAUCUGCGAAUUCUGCUGUAUAUCUC, 0.3. Take UAACAGGGGGCCAUAGCAGAAGCGUUCACGUCGCAGCCCCUGUCAGAUUCUGGUGACUCUGCGAAUUCUGCUGUAUAUCUC: the self-cleavage was found to be 0.66. In the case of UAACAGGGGGCCACAGCAGAAGCGUUCACGUCGCAGCCCCUGUCAGAUUCUGGUGAAUCUGCGAAUUGUGCCGUAUAUCUC, the self-cleavage came to 0.48. UAACAGGGGGCUACAGCAGAAGCGUUCACGUCGCAGCCCCUGUCUGAUUCUGGUGAAUCUGCGAAUUCUGCUGUAUAUCUC: the self-cleavage was 0.83. As to UAACAGGGGGCCACAGCAGAAGCGUUCACGUUGCUGCCCCUGUCAGAUUCUGGUGAAUCUGCGAAUUCUGCUGUAUAUCUC, the self-cleavage worked out at 0.32.

Consider UAACAGGGGGCCACAGCAAAAGCGCUCACGUCGCAGCCCCUGUCAGAUUCUGGUGAAUCUGCGAAUUCUGCUGUAUAUCUC, for which the self-cleavage is 0.13. Regarding UAACAGGGGGCCACAGCAGAAGCGUUCAUGUCGCAGCCCCUGUCAGAUUCUGGUGAAUCUGCGAAUUCUGCUGUAUAUUUC, the self-cleavage is 0.38. Take UAACAGGGGGCCACAGCAGAAGCGUUCACGUCGCAGCCCCUGUCAGACUCUGGUGAAUCUGCGAAUUCUGCUGUAUAUGUC: the self-cleavage amounted to 0.74. With UAACAGGGGGCCACAGCAGAAGCGUUUAAGUCGCAGCCCCUGUCAGAUUCUGGUGAAUCUGCGAAUUCUGCUGUAUAUCUC, the self-cleavage stood at 0.15. For UAACAGGGGGCCACAGCAGAAGCGUUCACGUCGCAGCCCCUGUCAGAUUCUGGUGAAACUGCGAAUUCCGCUGUAUAUCUC, the self-cleavage was found to be 0.28. As for UAACAGGGGGCCACAGCAGGAGCGUUCACGUCGCAGCCCCUGUCAGAUUCUGGUGAAUCUGCGAAUUCUGCUGUAGAUCUC, the figure is 0.99; as for UAACAGGGGGCCACAGCAGAAGCGUUUACGUCGCAGCCCCUGUCAGAUUCUGGUGUAUCUGCGAAUUCUGCUGUAUAUCUC, 0.21; as for UAACAGGGGGCCACAGCAGAAGCGUUCACGUCGCAGCCCCUGUCAGAUUCUGGAGAUUCUGCGAAUUCUGCUGUAUAUCUC, 1.04.

Take UAACAGGGGGCCACAGCAGAAGCGUUCACGUCGCAGCCCCUGUCAGAUUCUGGUGAAUCUGCGAAUUCUACUGUAUAUCAC: the self-cleavage worked out at 1.

For UAACAGGGGGCCACAGCAGAAGCGUUCACGUCGCAGCCCCUGUCAGAUUCUGGUGAAUCUGCGCAUUCUGCUGUAUGUCUC, the self-cleavage came out at 0.17. The result for UAACAGGGGGCCACAGCAGAAGCGUUCACGCUGCAGCCCCUGUCAGAUUCUGGUGAAUCUGCGAAUUCUGCUGUAUAUCUC reads 0.22; that for UAACAGGGGGCCACAGCAGAAGCGUUCACGUCGCAGCCCCUGUCAGAUUCCGGUGAAUCUGCGAGUUCUGCUGUAUAUCUC, 0.56. Consider UAACAGGGGGCCACAGCAGAAGCGUUCACGUCGCAGCCCCUGUUAGAUUCUGGUGAAUCUGCGAAUUCUGCCGUAUAUCUC, for which the self-cleavage worked out at 0.19. As to UAACAGGGGGCCACAGCAGAAGCGUUCUCGUCGCAGCCCCUGUCAGAUUCUGGUGAAUCUGCGAAUUCUGCUGUAUAUCCC, the self-cleavage came out at 0.97. Take UAACAGGGGGCCACAGUAGAAGCGUUCACGUCGCAGCCCCUGUCAGAUUCUGGUGAAUCUGCGAAUUCUGCUGCAUAUCUC: the self-cleavage was 0.97.

Regarding UAACAGGGGGCCACAUCAGAAGCGUCCACGUCGCAGCCCCUGUCAGAUUCUGGUGAAUCUGCGAAUUCUGCUGUAUAUCUC, the self-cleavage came out at 0.24. The result for UAACAGGGGGCCACAGCAAAAGCGUUCACGUCGCAGCCCCUGUCAGAUUCUGGUGAAUCUGCGAAUUCAGCUGUAUAUCUC reads 0.14; that for UAACAGGGGGCCACAACAGAAGCGUUCACGUCGCAGCCCCUGUCAGAUUCUGGUGUAUCUGCGAAUUCUGCUGUAUAUCUC, 0.13. With UAACAGUGGGCCACAGCAGAAGCGUUCACGUUGCAGCCCCUGUCAGAUUCUGGUGAAUCUGCGAAUUCUGCUGUAUAUCUC, the self-cleavage is 0.07.
